The values below come from article PMC7840889, “Architecture of the Tuberous Sclerosis Protein Complex” (Journal of Molecular Biology, 2021).

B1: FLAG-tagged full-length human TSC2 (natural protein)
chain: not shown
notes: human TSC2, full length, 1807 amino acids, UniProtKB/Swiss-Prot P49815-1; Could not be purified in the absence of TSC1; two copies stand in the TSCC; also called tuberin
B3: TSC1(Δ400-600) (natural protein, human, UniProt Q92574-1 1-1164, looked up)
chain: MAQQANVGELLAMLDSPMLGVRDDVTAVFKENLNSDRGPMLVNTLVDYYLETSSQPALHILTTLQEPHDKHLLDRINEYVGKAATRLSILSLLGHVIRLQPSWKHKLSQAPLLPSLLKCLKMDTDVVVLTTGVLVLITMLPMIPQSGKQHLLDFFDIFGRLSSWCLKKPGHVAEVYLVHLHASVYALFHRLYGMYPCNFVSFLRSHYSMKENLETFEEVVKPMMEHVRIHPELVTGSKDHELDPRRWKRLETHDVVIECAKISLDPTEASYEDGYSVSHQISARFPHRSADVTTSPYADTQNSYGCATSTPYSTSRLMLLNMPGQLPQTLSSPSTRLITEPPQATLWSPSMVCGMTTPPTSPGNVPPDLSHPYSKVFGTTAGGKGTPLGTPATSPPPAPPPPYDHLFEVALPKTAHHFVIRKTEELLKKAKGNTEEDGVPSTSPMEVLDRLIQQGADAHSKELNKLPLPSKSVDWTHFGGSPPSDEIRTLRDQLLLLHNQLLYERFKRQQHALRNRRLLRKVIKAAALEEHNAAMKDQLKLQEKDIQMWKVSLQKEQARYNQLQEQRDTMVTKLHSQIRQLQHDREEFYNQSQELQTKLEDCRNMIAELRIELKKANNKVCHTELLLSQVSQKLSNSESVQQQMEFLNRQLLVLGEVNELYLEQLQNKHSDTTKEVEMMKAAYRKELEKNRSHVLQQTQRLDTSQKRILELESHLAKKDHLLLEQKKYLEDVKLQARGQLQAAESRYEAQKRITQVFELEILDLYGRLEKDGLLKKLEEEKAEAAEAAEERLDCCNDGCSDSMVGHNEEASGHNGETKTPRPSSARGSSGSRGGGGSSSSSSELSTPEKPPHQRAGPFSSRWETTMGEASASIPTTVGSLPSSKSFLGMKARELFRNKSESQCDEDGMTSSLSESLKTELGKDLGVEAKIPLNLDGPHPSPPTPDSVGQLHIMDYNETHHEHS
notes: human TSC1 (1164 amino acids, Q92574-1) with an internal deletion of residues 400-600; also called TSC1 internal deletion construct; TSC1 of TSCC1Δ
B4: FLAG-tagged full-length human TSC1 (natural protein, UniProt Q92574-1 1-1164, looked up)
chain: MAQQANVGELLAMLDSPMLGVRDDVTAVFKENLNSDRGPMLVNTLVDYYLETSSQPALHILTTLQEPHDKHLLDRINEYVGKAATRLSILSLLGHVIRLQPSWKHKLSQAPLLPSLLKCLKMDTDVVVLTTGVLVLITMLPMIPQSGKQHLLDFFDIFGRLSSWCLKKPGHVAEVYLVHLHASVYALFHRLYGMYPCNFVSFLRSHYSMKENLETFEEVVKPMMEHVRIHPELVTGSKDHELDPRRWKRLETHDVVIECAKISLDPTEASYEDGYSVSHQISARFPHRSADVTTSPYADTQNSYGCATSTPYSTSRLMLLNMPGQLPQTLSSPSTRLITEPPQATLWSPSMVCGMTTPPTSPGNVPPDLSHPYSKVFGTTAGGKGTPLGTPATSPPPAPLCHSDDYVHISLPQATVTPPRKEERMDSARPCLHRQHHLLNDRGSEEPPGSKGSVTLSDLPGFLGDLASEEDSIEKDKEEAAISRELSEITTAEAEPVVPRGGFDSPFYRDSLPGSQRKTHSAASSSQGASVNPEPLHSSLDKLGPDTPKQAFTPIDLPCGSADESPAGDRECQTSLETSIFTPSPCKIPPPTRVGFGSGQPPPYDHLFEVALPKTAHHFVIRKTEELLKKAKGNTEEDGVPSTSPMEVLDRLIQQGADAHSKELNKLPLPSKSVDWTHFGGSPPSDEIRTLRDQLLLLHNQLLYERFKRQQHALRNRRLLRKVIKAAALEEHNAAMKDQLKLQEKDIQMWKVSLQKEQARYNQLQEQRDTMVTKLHSQIRQLQHDREEFYNQSQELQTKLEDCRNMIAELRIELKKANNKVCHTELLLSQVSQKLSNSESVQQQMEFLNRQLLVLGEVNELYLEQLQNKHSDTTKEVEMMKAAYRKELEKNRSHVLQQTQRLDTSQKRILELESHLAKKDHLLLEQKKYLEDVKLQARGQLQAAESRYEAQKRITQVFELEILDLYGRLEKDGLLKKLEEEKAEAAEAAEERLDCCNDGCSDSMVGHNEEASGHNGETKTPRPSSARGSSGSRGGGGSSSSSSELSTPEKPPHQRAGPFSSRWETTMGEASASIPTTVGSLPSSKSFLGMKARELFRNKSESQCDEDGMTSSLSESLKTELGKDLGVEAKIPLNLDGPHPSPPTPDSVGQLHIMDYNETHHEHS
notes: human TSC1, full length, 1164 amino acids, UniProtKB/Swiss-Prot Q92574-1; Two copies stand in the TSCC; also called hamartin

Data set [1] deals with the molecule itself. The data set can be described thus: SEC-MALS; TSCC1Δ (TSC1(Δ400-600)-TSC2-TBC1D7) on Superose 6 10/300; 25 mM K-HEPES pH 7.6, 250 mM KCl, 0.5 mM EDTA, 1 mM TCEP; room temperature.
Data set [2] concerns the target B4. The data set can be described thus: cryo-EM structure; single-particle cryo-EM of purified TSCCFL at 0.1-0.2 mg/mL on graphene oxide; 25 mM K-HEPES pH 7.6, 175 mM KCl or 150 mM LiCl, 1 mM TCEP; body 4.6 Å, pincer 8.1 Å, tail 8.2 Å. The conditions noted are these: both partners purified.
Data set [3] deals with B3. The data set can be described thus: SEC-MALS; TSCC1Δ (TSC1(Δ400-600)-TSC2-TBC1D7) on Superose 6 10/300; 25 mM K-HEPES pH 7.6, 250 mM KCl, 0.5 mM EDTA, 1 mM TCEP; room temperature. Particulars: both partners purified.
The target in data set [4] is B1. The data set is described as above. The conditions noted are these: both partners purified.
In data set [5] the target is B1. Nature of the data set: cryo-EM structure; single-particle cryo-EM of purified TSCCFL at 0.1-0.2 mg/mL on graphene oxide; 25 mM K-HEPES pH 7.6, 175 mM KCl or 150 mM LiCl, 1 mM TCEP; body 4.6 Å, pincer 8.1 Å, tail 8.2 Å. The conditions noted are these: both partners purified.

Regarding B1, the “stoichiometry N” value in data set [1] is about 2.

B2: FLAG-tagged human TBC1D7 (natural protein, UniProt Q9P0N9 1-293, looked up)
chain: MTEDSQRNFRSVYYEKVGFRGVEEKKSLEILLKDDRLDTEKLCTFSQRFPLPSMYRALVWKVLLGILPPHHESHAKVMMYRKEQYLDVLHALKVVRFVSDATPQAEVYLRMYQLESGKLPRSPSFPLEPDDEVFLAIAKAMEEMVEDSVDCYWITRRFVNQLNTKYRDSLPQLPKAFEQYLNLEDGRLLTHLRMCSAAPKLPYDLWFKRCFAGCLPESSLQRVWDKVVSGSCKILVFVAVEILLTFKIKVMALNSAEKITKFLENIPQDSSDAIVSKAIDLWHKHCGTPVHSS
notes: human TBC1D7, 293 amino acids, GenBank AAH07054; part of the FL TSC1-TSC2-TBC1D7 (TSCCFL) plasmids; One copy stands in the TSCC
B2: the binding result in data set [2] and in data set [3] was “binds” each time. With B3, in data set [1], the “stoichiometry N” value was about 2. In addition, the binding result in data set [4] is given as “binds”. Consider B4, for which the binding result in data set [5] was “binds”.

One may read the stoichiometry N as a count of units in the complex or per binding partner.
